Measured values reported in patent US20260092084A1, “PEPTIDE AND ASSEMBLY OR COMPOSITION CONTAINING SAID PEPTIDE” (priority 2022, published 2026).
Square brackets hold non-standard residues; d marks the D form. Ends that are not written are not given here. * marks the point of attachment. pS = N[C@@H](COP(=O)(O)O)C(=O)O; Tfa = O=C(C(F)(F)F)*

Key:
[1] = pH dependency of particle diameter of peptide assembly (dynamic light scattering); format: physicochemical; conditions: 25° C.; for Average particle diameter, pH 6: 10 mM MES, 150 mM NaCl buffer (pH 6.0); for Average particle diameter, pH 7: dilution A (pH 6.0) diluted with 10 mM HEPES, 150 mM NaCl buffer (pH 7.4)
Procedure: 5 mg of each of the peptides of Examples 2-1 and 2-2 was dissolved in DMSO to provide a stock solution (50 mg/mL). To a 10 mM MES and 150 mM NaCl buffer (pH 6.0) under stirring with a micromixer (E-36, Taitec Corporation), 4 μL of the stock solution was dropped to be diluted 100-fold. Thus, a dilution A was obtained. The dilution A was vortexed and then left to stand still at room temperature overnight. 100 μL of the dilution A was used and diluted with 300 μL of the same MES buffer or a 10 mM HEPES and 150 mM NaCl buffer (pH 7.4), and stirred for 1 hour. Thus, a dilution B was obtained. 200 μL of each of the dilution A and the dilution B after having been left to stand still overnight was used as a measurement sample and measurement of particle diameter distribution was performed at 25° C. with Litesizer 500 (Anton Paar GmBH).

[2] = Average particle diameter of peptide assembly by dynamic light scattering; format: physicochemical; conditions: 10 mM HEPES, 150 mM NaCl buffer (pH 7); 40 mM DMSO stock diluted 100-fold; stood overnight; 25° C.; main peak of scattering intensity
Procedure: 5 mg of each of the peptides of Examples 1-1 to 1-5 and Reference Examples 1-1 to 1-8 was dissolved in dimethyl sulfoxide (DMSO) to provide a stock solution (40 mM). To a 10 mM HEPES and 150 mM NaCl buffer (pH 7) under stirring with a micromixer (E-36, Taitec Corporation), 4 μL of the stock solution was dropped to be diluted 100-fold. The dilution was vortexed and then left to stand still at room temperature overnight. Then, 200 μL of the dilution was used as a measurement sample and measurement of particle diameter distribution was performed at 25° C. by dynamic light scattering with Litesizer 500 (Anton Paar GmBH). The results determined by defining the main peak of a scattering intensity as the average particle diameter of an assembly are shown in Table 3. Provided that, when a polydispersity index was more than 20%, the main peak was determined with further reference to a volume-based particle diameter distribution.

| Substance | Average particle diameter, pH 6 [1] | Average particle diameter, pH 7 [1] | Average particle diameter [2] |
| --- | --- | --- | --- |
| GRSHHKRK-LLELLELL-HRHHVQER (GRSHHKRKLLELLELLHRHHVQER; a peptide designed to have two hydrophilic regions and a hydrophobic region located therebetween) [Example 2-1] | 440 nm | 4 nm |  |
| KGKILRPR-LLELLELL (KGKILRPRLLELLELL-NH2) [Reference Example 1-5] |  |  | 5 nm |
| KGKILRPR-AAAAAAAA (KGKILRPRAAAAAAAA-NH2) [1-8] |  |  | >1,000 nm |
| KGKILRPR-YYYYYYYY (KGKILRPRYYYYYYYY-NH2) [1-2] |  |  | 210 nm |
| KGKILRPR-WWWWWWWW (KGKILRPRWWWWWWWW-NH2) [1-3] |  |  | 920 nm |
| KGKILRPR-WWEWWEWW (KGKILRPRWWEWWEWW-NH2) [1-6] |  |  | 10 nm |
| KGKILRPR-FFFFFFFF (KGKILRPRFFFFFFFF-NH2) [1-4] |  |  | 50 nm |
| DSpSEEK-AAEAAEAA-RRK(Tfa)RR (DS[pS]EEKAAEAAEAARRK(Tfa)RR-NH2; N-terminus assumed; SMILES C[C@H](NC(=O)[C@H](C)NC(=O)[C@H](CCC(=O)O)NC(=O)[C@H](C)NC(=O)[C@H](C)NC(=O)[C@H](CCCCN)NC(=O)[C@H](CCC(=O)O)NC(=O)[C@H](CCC(=O)O)NC(=O)[C@H](COP(=O)(O)O)NC(=O)[C@H](CO)NC(=O)[C@@H](N)CC(=O)O)C(=O)N[C@@H](CCC(=O)O)C(=O)N[C@@H](C)C(=O)N[C@@H](C)C(=O)N[C@@H](CCCNC(=N)N)C(=O)N[C@@H](CCCNC(=N)N)C(=O)N[C@@H](CCCCNC(=O)C(F)(F)F)C(=O)N[C@@H](CCCNC(=N)N)C(=O)N[C@@H](CCCNC(=N)N)C(N)=O) [Example 1-4] |  |  | 450 nm |
| KGKILRPR-LLLLLLLL (KGKILRPRLLLLLLLL-NH2) [1-1] |  |  | 36 nm |
| KGKILRPR-AAEAAEAA (KGKILRPRAAEAAEAA-NH2) [1-7] |  |  | 520 nm |
| DSpSEEKW-WEWWEWW-RRK(Tfa)RR (DS[pS]EEKWWEWWEWWRRK(Tfa)RR-NH2; N-terminus assumed; SMILES N=C(N)NCCC[C@H](NC(=O)[C@H](CCCNC(=N)N)NC(=O)[C@H](CCCCNC(=O)C(F)(F)F)NC(=O)[C@H](CCCNC(=N)N)NC(=O)[C@H](CCCNC(=N)N)NC(=O)[C@H](Cc1c[nH]c2ccccc12)NC(=O)[C@H](Cc1c[nH]c2ccccc12)NC(=O)[C@H](CCC(=O)O)NC(=O)[C@H](Cc1c[nH]c2ccccc12)NC(=O)[C@H](Cc1c[nH]c2ccccc12)NC(=O)[C@H](CCC(=O)O)NC(=O)[C@H](Cc1c[nH]c2ccccc12)NC(=O)[C@H](Cc1c[nH]c2ccccc12)NC(=O)[C@H](CCCCN)NC(=O)[C@H](CCC(=O)O)NC(=O)[C@H](CCC(=O)O)NC(=O)[C@H](COP(=O)(O)O)NC(=O)[C@H](CO)NC(=O)[C@@H](N)CC(=O)O)C(N)=O) [Example 1-3] |  |  | 350 nm |
| HHIRRKRQ-WWEWWEWW-HGDHHKSN (HHIRRKRQWWEWWEWWHGDHHKSN; a peptide designed to have two hydrophilic regions and a hydrophobic region located therebetween) [Example 2-2] | 4,400 nm | 210 nm |  |
